What was measured:
[1] = test system: RELA (p65) subunit of heterodimer;p50 subunit (Homo sapiens;Homo sapiens); experiment: protein binding microarray; conditions: Footprinting/EMSA: 10 mM Tris pH 7.4, 75 mM NaCl, 1 mM EDTA, 1 mM DTT, 200 ug/ml BSA, 0.005% NP-40, EMSA-Seq: 12 mM HEPES pH 7.8, 75 mM KCl, 4 mM …
[2] = test system: RELA (p65) subunit of heterodimer;p52 subunit (Homo sapiens;Homo sapiens); experiment: protein binding microarray; conditions: Footprinting/EMSA: 10 mM Tris pH 7.4, 75 mM NaCl, 1 mM EDTA, 1 mM DTT, 200 ug/ml BSA, 0.005% NP-40, EMSA-Seq: 12 mM HEPES pH 7.8, 75 mM KCl, 4 mM …
[3] = test system: RELARELA (p65 homodimer) (Homo sapiens); experiment: protein binding microarray; conditions: Footprinting/EMSA: 10 mM Tris pH 7.4, 75 mM NaCl, 1 mM EDTA, 1 mM DTT, 200 ug/ml BSA, 0.005% NP-40, EMSA-Seq: 12 mM HEPES pH 7.8, 75 mM KCl, 4 mM …
[4] = test system: RELA (p65) subunit of heterodimer;p50 subunit (Homo sapiens;Homo sapiens); experiment: UV laser footprinting; conditions: Footprinting/EMSA: 10 mM Tris pH 7.4, 75 mM NaCl, 1 mM EDTA, 1 mM DTT, 200 ug/ml BSA, 0.005% NP-40, EMSA-Seq: 12 mM HEPES pH 7.8, 75 mM KCl, 4 mM …
[5] = test system: RELA (p65) subunit of heterodimer;p52 subunit (Homo sapiens;Homo sapiens); experiment: UV laser footprinting; conditions: Footprinting/EMSA: 10 mM Tris pH 7.4, 75 mM NaCl, 1 mM EDTA, 1 mM DTT, 200 ug/ml BSA, 0.005% NP-40, EMSA-Seq: 12 mM HEPES pH 7.8, 75 mM KCl, 4 mM …
[6] = test system: RELARELA (p65 homodimer) (Homo sapiens); experiment: UV laser footprinting; conditions: Footprinting/EMSA: 10 mM Tris pH 7.4, 75 mM NaCl, 1 mM EDTA, 1 mM DTT, 200 ug/ml BSA, 0.005% NP-40, EMSA-Seq: 12 mM HEPES pH 7.8, 75 mM KCl, 4 mM …
[7] = molecular target: RELA (p65) subunit of heterodimer;p50 subunit (Homo sapiens;Homo sapiens) (UniProt Q04206+P19838); experiment: footprint; conditions: UV laser footprinting: 10 mM Tris pH 7.4, 75 mM NaCl, 1 mM EDTA, 1 mM DTT, 200 ug/ml BSA, 0.005% NP-40; microarray buffer in Additional file 1 (not seen); low values mean tight binding
[8] = molecular target: RELA (p65) subunit of heterodimer;p52 subunit (Homo sapiens;Homo sapiens) (UniProt Q04206+Q00653); experiment: footprint; conditions: UV laser footprinting: 10 mM Tris pH 7.4, 75 mM NaCl, 1 mM EDTA, 1 mM DTT, 200 ug/ml BSA, 0.005% NP-40; microarray buffer in Additional file 1 (not seen); low values mean tight binding
[9] = molecular target: RELARELA (p65 homodimer) (Homo sapiens) (UniProt Q04206); experiment: footprint; conditions: UV laser footprinting: 10 mM Tris pH 7.4, 75 mM NaCl, 1 mM EDTA, 1 mM DTT, 200 ug/ml BSA, 0.005% NP-40; microarray buffer in Additional file 1 (not seen); low values mean tight binding
[10] = test system: RELA (p65) subunit of heterodimer;p50 subunit (Homo sapiens;Homo sapiens); experiment: EMSA-Seq; conditions: Footprinting/EMSA: 10 mM Tris pH 7.4, 75 mM NaCl, 1 mM EDTA, 1 mM DTT, 200 ug/ml BSA, 0.005% NP-40, EMSA-Seq: 12 mM HEPES pH 7.8, 75 mM KCl, 4 mM …
[11] = test system: RELA (p65) subunit of heterodimer;p52 subunit (Homo sapiens;Homo sapiens); experiment: EMSA-Seq; conditions: Footprinting/EMSA: 10 mM Tris pH 7.4, 75 mM NaCl, 1 mM EDTA, 1 mM DTT, 200 ug/ml BSA, 0.005% NP-40, EMSA-Seq: 12 mM HEPES pH 7.8, 75 mM KCl, 4 mM …
[12] = test system: RELARELA (p65 homodimer) (Homo sapiens); experiment: EMSA-Seq; conditions: Footprinting/EMSA: 10 mM Tris pH 7.4, 75 mM NaCl, 1 mM EDTA, 1 mM DTT, 200 ug/ml BSA, 0.005% NP-40, EMSA-Seq: 12 mM HEPES pH 7.8, 75 mM KCl, 4 mM …

Sequence of RELA (p65) subunit of heterodimer;p52 subunit (Homo sapiens;Homo sapiens) (UniProt Q04206+Q00653) (Q04206 1-307, chain 1 of 2): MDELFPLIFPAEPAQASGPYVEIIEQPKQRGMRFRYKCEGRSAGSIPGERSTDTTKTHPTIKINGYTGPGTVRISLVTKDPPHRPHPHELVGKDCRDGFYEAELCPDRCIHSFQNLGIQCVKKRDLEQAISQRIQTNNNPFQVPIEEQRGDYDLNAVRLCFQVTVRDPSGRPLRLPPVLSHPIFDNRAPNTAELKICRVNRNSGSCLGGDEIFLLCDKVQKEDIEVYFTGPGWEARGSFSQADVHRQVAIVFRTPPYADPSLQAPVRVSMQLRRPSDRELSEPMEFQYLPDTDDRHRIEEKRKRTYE
Sequence of RELA (p65) subunit of heterodimer;p52 subunit (Homo sapiens;Homo sapiens) (UniProt Q04206+Q00653) (Q00653 4-332, chain 2 of 2): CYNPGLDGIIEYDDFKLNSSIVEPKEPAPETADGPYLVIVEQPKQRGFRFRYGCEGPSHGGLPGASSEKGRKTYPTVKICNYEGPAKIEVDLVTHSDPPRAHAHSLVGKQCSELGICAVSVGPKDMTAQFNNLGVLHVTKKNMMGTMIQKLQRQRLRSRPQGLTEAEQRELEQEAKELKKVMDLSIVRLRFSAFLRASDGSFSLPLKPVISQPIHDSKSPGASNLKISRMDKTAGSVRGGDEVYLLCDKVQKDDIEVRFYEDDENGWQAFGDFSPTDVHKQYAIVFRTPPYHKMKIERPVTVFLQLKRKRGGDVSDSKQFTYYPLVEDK
Sequence of RELA (p65) subunit of heterodimer;p50 subunit (Homo sapiens;Homo sapiens) (UniProt Q04206+P19838) (Q04206 1-307, chain 1 of 2): as the sequence (Q04206 1-307, chain 1 of 2) above
Sequence of RELA (p65) subunit of heterodimer;p50 subunit (Homo sapiens;Homo sapiens) (UniProt Q04206+P19838) (P19838 7-356, chain 2 of 2): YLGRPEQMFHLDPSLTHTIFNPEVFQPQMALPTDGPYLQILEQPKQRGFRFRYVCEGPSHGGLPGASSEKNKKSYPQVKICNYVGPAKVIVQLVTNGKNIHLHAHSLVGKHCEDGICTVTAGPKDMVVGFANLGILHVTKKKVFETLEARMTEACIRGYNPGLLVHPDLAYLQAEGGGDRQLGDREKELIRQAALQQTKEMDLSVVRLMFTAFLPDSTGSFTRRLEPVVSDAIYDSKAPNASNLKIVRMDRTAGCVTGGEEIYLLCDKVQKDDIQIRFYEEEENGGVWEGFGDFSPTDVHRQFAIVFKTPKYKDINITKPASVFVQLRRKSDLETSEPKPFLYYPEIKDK
Sequence of RELARELA (p65 homodimer) (Homo sapiens) (UniProt Q04206) (Q04206 1-307): as the sequence (Q04206 1-307, chain 1 of 2) above

Row | Sequence | Kd [4] | Kd [5] | binding signal [10] | binding signal [11] | further results
1 | AGGAAATTCCG microarray probes |  |  |  |  | binding signal [1]: 1.2 z-score; binding signal [2]: 0.55 z-score; binding signal [3]: 3.7 z-score
2 | AGGAAATTCCG footprint probe | 4.6 nM | 1.7 nM |  |  | Kd [6]: 3.25 nM
3 | AGGAAATTCCG (double strand) |  |  |  |  | binding signal (Kd, unit not seen) [7]: 4.6; binding signal (Kd, unit not seen) [8]: 1.7; binding signal (Kd, unit not seen) [9]: 3.25
4 | CTGGGGATTTA footprint probe | 16 nM | 13.8 nM |  |  | 
5 | AGGGGAAGTTA 11-mer in EMSA-Seq ligands |  |  | 35.4 z-score | 27.5 z-score | binding signal [12]: 3.78 z-score
6 | AGGGGGATCTG microarray probes |  |  |  |  | binding signal [1]: 2.39 z-score; binding signal [2]: 1.76 z-score
7 | CTGGGGATTTA 11-mer in EMSA-Seq ligands |  |  | 24.2 z-score | 19.5 z-score | binding signal [12]: 10.8 z-score
8 | AGGGGAAGTTA footprint probe | 26 nM | 20 nM |  |  | 
9 | AGGAAATTCCG 11-mer in EMSA-Seq ligands |  |  | 20.4 z-score | 13 z-score | binding signal [12]: 40.9 z-score
10 | AGGGGGATCTG footprint probe | 10.5 nM | 2 nM |  |  | 
11 | AGGGGGATCTG (double strand) |  |  |  |  | binding signal (Kd, unit not seen) [7]: 10.5; binding signal (Kd, unit not seen) [8]: 2
12 | AGGGGGATCTG 11-mer in EMSA-Seq ligands |  |  | 23.1 z-score | 18.4 z-score | 

Reference: paper PMC3218832
